The source of these data is article PMC7954794, “Protein context shapes the specificity of SH3 domain-mediated interactions in vivo” (Nature Communications, 2021).

The subject of test [1] is PPIs identified as affected by the SH3 domain deletions. As to the kind of experiment: Liquid DHFR-PCA low-throughput validation of PPIs affected by SH3 deletion (Fig. S1D-E). The following applies: label = prey, liquid DHFR-PCA, prey _1 = lost, _2 = gained in screen. It counts as cell-based, Saccharomyces cerevisiae. As to the method:
Liquid DHFR-PCA low-throughput experiments were performed to validate the PPIs identified as affected by the SH3 domain deletions in the high-throughput solid DHFR-PCA screen (256 PPIs weaker or lost and 116 PPIs stronger or gained following domain deletions). Mating and the diploid selection were performed as described for the large-scale experiment, with the exception that the plates were in 384 formats. Following the second diploid selection, diploid cells were inoculated in a 96 v-shaped well plate using a robotically manipulated 96 pin tool in a synthetic complete medium with MSG at pH 6.0 with NAT and HPH. After 48 h of growth, optical density (OD) was read using a TECAN Infinite F200 Pro, and dilutions to 1 OD in sterile nanopure water were prepared. Cells were then diluted to 0.1 OD by combining 25 µl of cell suspension at OD = 1 and 225 µl of PCA selection media without agar in a 96-wells plate. Plates were incubated at 30 °C in a TECAN Infinite M Nano and OD was monitored each 15 min for 72 h.

Test [2] has as its system growth of yeast strains under 51 stress conditions. As to the kind of experiment: Growth assays in 51 stress conditions (Fig. 1E-F, S2D, S5B). It counts as cell-based, Saccharomyces cerevisiae. Also noted: key to Growth (Fig. S2D) / growth of ABP1 SH3-swapped strains in stress condition: log2 colony size, average of median per strain (growth score). Particulars: ABP1 SH3-swapped strains. Here is the method:
All WT, SH3-deleted, KO (except for CDC25 which is the only essential SH3-containing gene in yeast), ABP1 SH3-swapped, and SLA1 SH3-shuffled strains were grown on omnitrays in 1536 formats and robotically manipulated with a pin tool (the DHFR F[1,2] bait strains were used except for the KO strains). Each strain was randomly positioned in 6 replicates per plate and two plates per condition were performed, for 12 replicates per strain in total. A border of two rows and two columns of WT strains (BY4741) around the plate was used to remove border effects. Strains were grown on YPD media for two days at 30 °C. They were then replicated on 51 different media that are described in the Supplementary Table 3 and were incubated at 37 °C in a spImager custom platform with images acquired every two hours for four days. The colony sizes from plate pictures were also measured with the R package “Gitter” and the output was manually inspected. Positions with an abnormality in colony circularity were removed. The colony sizes after 74 h of incubation at 37 °C were log2 transformed and used for the analyses. First, the differences between the two plate replicates were corrected to remove plate effects. The median colony size was calculated for each strain per plate. Strains with a difference in their median colony size of more than two between the two plate replicates were removed. Finally, the average of the median colony size was calculated for each strain per condition (growth score).

B1: YPL246C_2 (protein, UniProt Q12270 1-262, looked up)
Rhomboid-type serine protease …: MNWKSYVFPGGHPPAALTTGLVVFLTAIYLLSFIFALREDLSLAPESLFKLQMSRLSLYPLIHLSLPHLLFNVLAIWAPLNLFEETHGTVYTGVFLNLSALFAGILYCLLGKLLYPEALVAGASGWCFTLFAYYSFKESQIRPRTRIFRTDYSIPTLYTPLVLLVAIAVVIPGSSFWGHFFGLCVGYAIGYKESWFNKITPPGWIITKIEKSLDGLIRLIPWGIKYYRDEDIDRTKDYEPLMSTETPLPLHNDNSGTVLGTA
B1: the “Ratio (Deletedscore / WTscore)” value is reported as 1.339 in test [1] (bait ABP1), 1.364 in test [1] (bait LSB3) and 1.171 in test [1] (bait SHO1).

B2: YOR039W_2 (protein, UniProt P38930 1-258, looked up)
Casein kinase II subunit beta': MGSRSENVGTVTREGSRVEQDDVLMDDDSDSSEYVDMWIDLFLGRKGHEYFCDVDPEYITDRFNLMNLQKTVSKFSYVVQYIVDDLDDSILENMTHARLEQLESDSRKLYGLIHARYIITIKGLQKMYAKYKEADFGRCPRVYCNLQQLLPVGLHDIPGIDCVKLYCPSCEDLYIPKSSRHSSIDGAYFGTSFPGMFLQAFPDMVPKHPTKRYVPKIFGFELHKQAQLTRWQELQRLKLVEKLESKDVDLTKSGGFKT
With B2, in test [1] (bait LSB3), the “Ratio (Deletedscore / WTscore)” value is listed as 1.116.

B3: ABP1 WT (protein, UniProt P15891 2-592, looked up)
Actin-binding protein: ALEPIDYTTHSREIDAEYLKIVRGSDPDTTWLIISPNAKKEYEPESTGSSFHDFLQLFDETKVQYGLARVSPPGSDVEKIIIIGWCPDSAPLKTRASFAANFAAVANNLFKGYHVQVTARDEDDLDENELLMKISNAAGARYSIQTSSKQQGKASTPPVKKSFTPSKSPAPVSKKEPVKTPSPAPAAKISSRVNDNNDDDDWNEPELKERDFDQAPLKPNQSSYKPIGKIDLQKVIAEEKAKEDPRLVQKPTAAGSKIDPSSDIANLKNESKLKRDSEFNSFLGTTKPPSMTESSLKNDDDKVIKGFRNEKSPAQLWAERKAKQNSGNAETKAEAPKPEVPEDEPEGEPDVKDLKSKFEGLAASEKEEEEMENKFAPPPKKSEPTIISPKPFSKPQEPVKAEEAEQPKTDYKKIGNPLPGMHIEADNEEEPEENDDDWDDDEDEAAQPPLPSRNVASGAPVQKEEPEQEEIAPSLPSRNSIPAPKQEEAPEQAPEEEIEEEAEEAAPQLPSRSSAAPPPPPRRATPEKKPKENPWATAEYDYDAAEDNELTFVENDKIINIEFVDDDWWLGELEKDGSKGLFPSNYVSLGN
B3: the “Growth (Fig. S2D)” value in test [2] (Bathophenanthroline.0.1uM) worked out at 10.7779; in test [2] (Bathophenanthroline.10uM), 10.6544; in test [2] (Bathophenanthroline.1uM), 10.7233; in test [2] (CaCl2.100mM) it was 10.745; in test [2] (CaCl2.250mM), 10.6724; in test [2] (CaCl2.500mM), 10.224. Further, the “Growth (Fig. S2D)” value in test [2] (Caffein.10mM) stood at 9.987; in test [2] (Caffein.2mM), 10.9881; in test [2] (CdCl2.100uM), 9.742; in test [2] (CdCl2.10uM) it was 10.8471; in test [2] (CdCl2.50uM), 10.1808; in test [2] (CuSO4.1mM), 10.5746. For the same molecule, the “Growth (Fig. S2D)” value in test [2] (CuSO4.5mM) was 8.442; in test [2] (Cycloheximide.0.05.uM), 11.0561; in test [2] (Cycloheximide.0.2.uM), 10.6665; in test [2] (Cycloheximide.0.5.uM), 10.4823; in test [2] (DMSO.2.), 10.9822; in test [2] (DMSO.6.), 9.9755. For the same molecule, the “Growth (Fig. S2D)” value in test [2] (DMSO.8.) is 9.381; in test [2] (Ethanol.2.), 10.76; in test [2] (Ethanol.6.), 10.427; in test [2] (Ethanol.8.), 10.4864; in test [2] (Galactose.2.), 10.7856; in test [2] (Glycerol.2.) it was 10.3292. Also, the “Growth (Fig. S2D)” value in test [2] (Hydroxyurea.25mM) is 10.7632; in test [2] (Hygromycin.190uM), 10.9263; in test [2] (Hygromycin.19uM) it was 10.9545; in test [2] (Hygromycin.95uM), 10.9494; in test [2] (MMS.0.004.), 10.9625; in test [2] (MMS.0.02.), 10.8338. For the same molecule, the “Growth (Fig. S2D)” value in test [2] (MMS.0.04.) was 10.264; in test [2] (Menadione.100uM), 10.4792; in test [2] (Menadione.200uM), 10.398; in test [2] (Menadione.50uM), 10.8403; in test [2] (NaCl.0.25M), 10.7336; in test [2] (NaCl.1M), 10.1964. Also, the “Growth (Fig. S2D)” value in test [2] (Nitroquinoline.10uM) was 10.6457; in test [2] (Nitroquinoline.50uM), 10.6448; in test [2] (Nystatin.0.01uM), 10.9455; in test [2] (Nystatin.0.1uM), 11.0177; in test [2] (Raffinose.2.) it was 10.9059; in test [2] (Rapamycin.10nM) it was 9.962. For the same molecule, the “Growth (Fig. S2D)” value was determined as 9.216 in test [2] (Rapamycin.50nM); 10.4509 in test [2] (SC.pH3); 10.9947 in test [2] (SC.pH6); 10.9398 in test [2] (SDS.0.01.); 10.9447 in test [2] (SDS.0.02.); 10.807 in test [2] (SDS.0.05.). The “Growth (Fig. S2D)” value is reported as 10.9819 in test [2] (Sorbitol.10mM), 10.9741 in test [2] (Sorbitol.1mM) and 10.8941 in test [2] (Sorbitol.5mM).

B4: YOR081C_2 (protein, UniProt Q12043 1-749, looked up)
Triacylglycerol lipase 5: MSNTLPVTEFLLSKYYELSNTPATDSSSLFKWLYHKTLSRKQLLISDLSSQKKHAISYDQWNDIASRLDDLTGLSEWKTIDESSLYNYKLLQDLTIRMRHLRTTHDYHRLLYLIRTKWVRNLGNMNNVNLYRHSHTGTKQIIHDYLEESQAVLTALIHQSNMNDHYLLGILQQTRRNIGRTALVLSGGSTFGLFHIGVLAALFESDLMPKVISGSSAGAIVASIFCVHTTQEIPSLLTNVLNMEFNIFNDDNSKSPNENLLIKISRFCQNGTWFNNQPLINTMLSFLGNLTFREAYNKTGKILNITVSPASIYEQPKLLNNLTAPNVLIWSAVCASCSLPGVFPSTPLFEKDPHTGKIKEWGATNLHLSNMKFMDGSVDNDMPISRLSEMFNVDHIIACQVNIHVFPLLKFSNTCVGGEIEKEITARFRNQVTKIFKFFSDETIHFLDILKELEFHPYLMTKLKHLFLQQYSGNVTILPDLSMVGQFHEVLKNPSQLFLLHQTTLGARATWPKISMIQNNCGQEFALDKAITFLKEKIIISSSIKNPLQFYQPRFSEQIKSLSIMDADLPGVDLEESSSNSLSIIKSPNKTAAPGRFPLQPLPSPSSTFNKRKMDMLSPSPSPSTSPQRSKSSFTQQGTRQKANSLSFAIGASSLRLKKSPLKVPSRPQFKKRSSYYNQNMSAEMRKNRKKSGTISSYDVQTNSEDFPIPAIENGSFDNTLFNPSRFPMDAMSAATNDNFMNNSDIFQN
In the case of B4, the “Ratio (Deletedscore / WTscore)” value in test [1] (bait LSB3) is recorded as 1.383.
